Assay results as given in publication PMC10538664.

Target: prototype SARS-CoV-2 tandem RBD homotrimer (PPP) (SARS-CoV-2) (UniProt P0DTC2)
Test: SPR

Substance	Kd [nM]
C022	1.8
REGN10933	5.4
CV07-270	11.7
S309	0.4
CR3022	80.6
